# Experimental data as given in IntAct's records for PubMed 35512704.
# B1: Mothers against decapentaplegic homolog 4 (Homo sapiens), Q13485 (parent)
# chain: MDNMSITNTPTSNDACLSIVHSLMCHRQGGESETFAKRAIESLVKKLKEKKDELDSLITAITTNGAHPSKCVTIQRTLDGRLQVAGRKGFPHVIYARLWRWPDLHKNELKHVKYCQYAFDLKCDSVCVNPYHYERVVSPGIDLSGLTLQSNAPSSMMVKDEYVHDFEGQPSLSTEGHSIQTIQHPPSNRASTETYSTPALLAPSESNATSTANFPNIPVASTSQPASILGGSHSEGLLQIASGPQPGQQQNGFTGQPATYHHNSTTTWTGSRTAPYTPNLPHHQNGHLQHHPPMPPHPGHYWPVHNELAFQPPISNHPAPEYWCSIAYFEMDVQVGETFKVPSSCPIVTVDGYVDPSGGDRFCLGQLSNVHRTEAIERARLHIGKGVQLECKGEGDVWVRCLSDHAVFVQSYYLDREAGRAPGDAVHKIYPSAYIKVFDLRQCHRQMQQQAATAQAAAAAQAAAVAGNIPGPGSVGGIAPAISLSAAAGIGVDDLRRLCILRMSFVKGWGPDYPRQSIKETPCWIEIHLHRALQLLDEVLHTMPIADPQPLD
# partner: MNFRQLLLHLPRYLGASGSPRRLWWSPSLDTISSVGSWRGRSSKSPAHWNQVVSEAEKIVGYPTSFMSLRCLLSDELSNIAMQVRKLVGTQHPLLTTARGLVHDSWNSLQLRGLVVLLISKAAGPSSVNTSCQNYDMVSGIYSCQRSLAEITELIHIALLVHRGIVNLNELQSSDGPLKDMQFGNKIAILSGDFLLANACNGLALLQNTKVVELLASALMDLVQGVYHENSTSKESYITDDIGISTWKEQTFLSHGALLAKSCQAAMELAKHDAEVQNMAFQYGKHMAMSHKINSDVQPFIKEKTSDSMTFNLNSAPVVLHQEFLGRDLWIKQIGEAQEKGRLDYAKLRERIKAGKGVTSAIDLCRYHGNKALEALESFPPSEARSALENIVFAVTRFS
# B2: Mothers against decapentaplegic homolog 4 (Homo sapiens), Q13485 (parent)
# chain: B1 chain
# partner: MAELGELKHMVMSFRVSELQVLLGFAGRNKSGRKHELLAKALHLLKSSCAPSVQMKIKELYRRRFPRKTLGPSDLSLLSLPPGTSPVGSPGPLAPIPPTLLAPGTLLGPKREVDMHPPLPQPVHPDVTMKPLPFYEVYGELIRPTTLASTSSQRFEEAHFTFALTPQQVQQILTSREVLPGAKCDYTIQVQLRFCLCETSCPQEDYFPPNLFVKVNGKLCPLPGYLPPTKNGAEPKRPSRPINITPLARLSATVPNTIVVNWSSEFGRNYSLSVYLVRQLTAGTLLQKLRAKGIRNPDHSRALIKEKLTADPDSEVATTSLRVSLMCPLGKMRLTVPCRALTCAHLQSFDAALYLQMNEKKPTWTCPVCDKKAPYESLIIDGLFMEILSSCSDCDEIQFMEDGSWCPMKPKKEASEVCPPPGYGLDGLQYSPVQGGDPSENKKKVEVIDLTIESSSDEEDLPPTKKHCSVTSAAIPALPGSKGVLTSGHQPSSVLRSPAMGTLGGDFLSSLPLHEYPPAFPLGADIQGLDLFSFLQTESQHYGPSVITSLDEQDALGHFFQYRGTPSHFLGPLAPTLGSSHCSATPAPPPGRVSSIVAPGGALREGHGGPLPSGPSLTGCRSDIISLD
# B3: Mothers against decapentaplegic homolog 4 (Homo sapiens), Q13485 (parent)
# chain: B1 chain
# partner: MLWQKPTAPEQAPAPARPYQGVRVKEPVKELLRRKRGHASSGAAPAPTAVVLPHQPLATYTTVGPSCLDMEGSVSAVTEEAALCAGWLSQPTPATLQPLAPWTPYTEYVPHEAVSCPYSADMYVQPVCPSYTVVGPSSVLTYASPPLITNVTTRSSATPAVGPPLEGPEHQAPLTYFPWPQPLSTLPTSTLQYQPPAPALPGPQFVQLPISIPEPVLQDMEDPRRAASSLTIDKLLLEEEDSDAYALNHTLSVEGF
# B4: Mothers against decapentaplegic homolog 4 (Homo sapiens), Q13485 (parent)
# chain: B1 chain
# partner: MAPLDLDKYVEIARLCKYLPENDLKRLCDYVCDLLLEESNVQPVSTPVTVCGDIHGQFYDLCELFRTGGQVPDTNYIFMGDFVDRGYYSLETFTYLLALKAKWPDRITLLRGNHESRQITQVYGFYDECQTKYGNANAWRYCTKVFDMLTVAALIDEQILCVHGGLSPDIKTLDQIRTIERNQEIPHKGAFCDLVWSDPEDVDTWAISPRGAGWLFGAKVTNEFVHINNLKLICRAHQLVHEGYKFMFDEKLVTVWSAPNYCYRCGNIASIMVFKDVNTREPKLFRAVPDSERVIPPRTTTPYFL
# B5: Mothers against decapentaplegic homolog 4 (Homo sapiens), Q13485 (parent)
# chain: B1 chain
# partner: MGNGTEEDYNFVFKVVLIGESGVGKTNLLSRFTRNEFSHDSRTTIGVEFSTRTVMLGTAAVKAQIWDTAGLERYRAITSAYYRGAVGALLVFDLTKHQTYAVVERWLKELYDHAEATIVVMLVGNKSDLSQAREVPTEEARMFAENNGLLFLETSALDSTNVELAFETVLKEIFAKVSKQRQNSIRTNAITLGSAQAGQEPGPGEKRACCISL
# B6: Mothers against decapentaplegic homolog 4 (Homo sapiens), Q13485 (parent)
# chain: B1 chain
# partner: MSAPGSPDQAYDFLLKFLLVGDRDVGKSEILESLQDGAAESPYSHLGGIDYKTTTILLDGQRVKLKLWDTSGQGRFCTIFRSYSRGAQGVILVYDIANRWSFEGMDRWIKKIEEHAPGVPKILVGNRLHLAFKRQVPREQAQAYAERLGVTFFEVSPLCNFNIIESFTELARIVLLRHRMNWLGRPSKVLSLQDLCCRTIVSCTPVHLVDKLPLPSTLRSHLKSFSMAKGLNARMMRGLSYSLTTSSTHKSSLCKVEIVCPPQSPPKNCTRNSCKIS
# B7: Mothers against decapentaplegic homolog 4 (Homo sapiens), Q13485 (parent)
# chain: B1 chain
# partner: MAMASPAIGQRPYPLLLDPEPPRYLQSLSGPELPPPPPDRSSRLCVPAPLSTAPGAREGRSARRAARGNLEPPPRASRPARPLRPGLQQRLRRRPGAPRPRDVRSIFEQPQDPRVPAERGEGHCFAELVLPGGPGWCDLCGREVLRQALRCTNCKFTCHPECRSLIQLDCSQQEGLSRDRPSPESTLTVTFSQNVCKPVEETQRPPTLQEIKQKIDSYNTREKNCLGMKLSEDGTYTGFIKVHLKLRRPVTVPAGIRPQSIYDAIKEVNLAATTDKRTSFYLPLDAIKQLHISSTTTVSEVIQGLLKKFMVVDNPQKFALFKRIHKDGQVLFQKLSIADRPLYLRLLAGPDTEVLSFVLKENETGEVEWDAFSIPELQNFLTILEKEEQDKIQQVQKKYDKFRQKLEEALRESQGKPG
# Variants of: B1
# Conditions: with dlp1_human PDSS2, Q86YH6
row,Variant,effect of a mutation on the interaction
1,R361H,with no effect

# Variants of: B2
# Conditions: with pias3_human PIAS3, Q9Y6X2
row,Variant,effect of a mutation on the interaction
1,G386D,with no effect

# Variants of: B2
# Conditions: with pias3_human PIAS3, Q9Y6X2
# Remark: another data set of the same source
row,Variant,effect of a mutation on the interaction
1,G386D,increasing interaction strength

# Variants of: B3
# Conditions: with obf1_human POU2AF1, Q16633
row,Variant,effect of a mutation on the interaction
1,G386D,with no effect

# Variants of: B3
# Conditions: with obf1_human POU2AF1, Q16633
# Remark: another data set of the same source
row,Variant,effect of a mutation on the interaction
1,G386D,increasing interaction strength

# Variants of: B4
# Conditions: with ppp6_human PPP6C
row,Variant,effect of a mutation on the interaction
1,G386D,with no effect

# Variants of: B4
# Conditions: with ppp6_human PPP6C
# Remark: another data set of the same source
row,Variant,effect of a mutation on the interaction
1,G386D,increasing interaction strength

# Variants of: B4
# Conditions: with ppp6_human PPP6C
# Remark: another data set of the same source
row,Variant,effect of a mutation on the interaction
1,R361C,with no effect

# Variants of: B5
# Conditions: with rab25_human RAB25, P57735
row,Variant,effect of a mutation on the interaction
1,G386D,with no effect

# Variants of: B6
# Conditions: with rb40a_human RAB40A
row,Variant,effect of a mutation on the interaction
1,G386D,with no effect

# Variants of: B7
# Conditions: with rasf5_human RASSF5, Q8WWW0
row,Variant,effect of a mutation on the interaction
1,G386D,with no effect

# Variants of: B7
# Conditions: with rasf5_human RASSF5, Q8WWW0
# Remark: another data set of the same source
row,Variant,effect of a mutation on the interaction
1,R361H,with no effect
